B1: mRNA-splicing (parent)
chain: AGUUGCUGCUGGGAGCUCCAGCACAGUGAAAUGGACAGAAGGGCAGAGCAA

Variants of: B1
Assay: exon inclusion enrichment index; higher = more inclusion; WT1 exon 5 minigene, HEK293
In the case of C24G A25C, the “exon inclusion enrichment index” value is reported as 0.0375. For C19A, the “exon inclusion enrichment index” value was 1.49. For C19U, the “exon inclusion enrichment index” value was 0.199. For C19G, the “exon inclusion enrichment index” value was 2.42. In the case of G15A C16U, the “exon inclusion enrichment index” value is reported as 0.014. With G15A C16G the “exon inclusion enrichment index” value was 0.0571. In the case of G15A C16A, the “exon inclusion enrichment index” value is reported as 0.03. For A37G G38U, the “exon inclusion enrichment index” value was 0.0457. For A37G G38A, the “exon inclusion enrichment index” value was 0.201. In the case of A37G G38C, the “exon inclusion enrichment index” value is reported as 0.249. For A14C, the “exon inclusion enrichment index” value was 0.099. In the case of A14U, the “exon inclusion enrichment index” value is reported as 0.0353. For A14G, the “exon inclusion enrichment index” value was 0.0948. With G33A G34U the “exon inclusion enrichment index” value was 0.0122. For G33A G34C, the “exon inclusion enrichment index” value was 0.0101. In the case of G33A G34A, the “exon inclusion enrichment index” value is reported as 0.0101. With A35U C36U the “exon inclusion enrichment index” value was 0.000825. For A35U C36A, the “exon inclusion enrichment index” value was 0.000875. With A35U C36G the “exon inclusion enrichment index” value was 0.00845. For U32A G33U, the “exon inclusion enrichment index” value was 0.0657. In the case of U32A G33C, the “exon inclusion enrichment index” value is reported as 0.181. For U32A G33A, the “exon inclusion enrichment index” value was 0.0558. With A39U the “exon inclusion enrichment index” value was 0.000772. For A39G, the “exon inclusion enrichment index” value was 0.074. With A39C the “exon inclusion enrichment index” value was 0.0251. With G33C the “exon inclusion enrichment index” value was 0.179. With G33A the “exon inclusion enrichment index” value was 0.0129. In the case of G33U, the “exon inclusion enrichment index” value is reported as 0.0261. For U32G, the “exon inclusion enrichment index” value was 0.0106. With U32A the “exon inclusion enrichment index” value was 0.107. For U32C, the “exon inclusion enrichment index” value was 0.336. For G33U G34U, the “exon inclusion enrichment index” value was 0.0123. In the case of G33U G34C, the “exon inclusion enrichment index” value is reported as 0.0208. With G33U G34A the “exon inclusion enrichment index” value was 0.00421. With C16G U17A the “exon inclusion enrichment index” value was 0.231. In the case of C16G U17C, the “exon inclusion enrichment index” value is reported as 0.114. In the case of C16G U17G, the “exon inclusion enrichment index” value is reported as 0.0697. For U27C G28U, the “exon inclusion enrichment index” value was 0.00627. In the case of U27C G28C, the “exon inclusion enrichment index” value is reported as 0.105. In the case of U27C G28A, the “exon inclusion enrichment index” value is reported as 0.0654. For C36A A37G, the “exon inclusion enrichment index” value was 0.0199. With C36A A37C the “exon inclusion enrichment index” value was 0.209. For C36A A37U, the “exon inclusion enrichment index” value was 0.0531. With A30G A31C the “exon inclusion enrichment index” value was 0.126. For A30G A31G, the “exon inclusion enrichment index” value was 0.0117. For A30G A31U, the “exon inclusion enrichment index” value was 0.0224. With C18A C19G the “exon inclusion enrichment index” value was 0.352. In the case of C18A C19A, the “exon inclusion enrichment index” value is reported as 0.547. In the case of C18A C19U, the “exon inclusion enrichment index” value is reported as 0.121. For U27G G28A, the “exon inclusion enrichment index” value was 0.354. For U27G G28U, the “exon inclusion enrichment index” value was 0.00139. With U27G G28C the “exon inclusion enrichment index” value was 0.101. With C22G A23U the “exon inclusion enrichment index” value was 0.496. In the case of C22G A23G, the “exon inclusion enrichment index” value is reported as 1.07. In the case of C22G A23C, the “exon inclusion enrichment index” value is reported as 1.36. With G34U A35U the “exon inclusion enrichment index” value was 0.0144. In the case of G34U A35C, the “exon inclusion enrichment index” value is reported as 0.0394. In the case of G34U A35G, the “exon inclusion enrichment index” value is reported as 0.142. With G41A the “exon inclusion enrichment index” value was 0.0829. For C22U A23G, the “exon inclusion enrichment index” value was 1.77. With C22U A23U the “exon inclusion enrichment index” value was 1.19. In the case of C22U A23C, the “exon inclusion enrichment index” value is reported as 1.24. With G34A A35C the “exon inclusion enrichment index” value was 0.0806. In the case of G34A A35U, the “exon inclusion enrichment index” value is reported as 0.0211. For G34A A35G, the “exon inclusion enrichment index” value was 0.0204. With A25C the “exon inclusion enrichment index” value was 1.1. For A25G, the “exon inclusion enrichment index” value was 0.595. For A25U, the “exon inclusion enrichment index” value was 0.241. In the case of A31U U32A, the “exon inclusion enrichment index” value is reported as 0.00762. For A31U U32C, the “exon inclusion enrichment index” value was 0.301. For A31U U32G, the “exon inclusion enrichment index” value was 0.056. For G28C A29U, the “exon inclusion enrichment index” value was 0.0556. In the case of G28C A29C, the “exon inclusion enrichment index” value is reported as 0.118. For G28C A29G, the “exon inclusion enrichment index” value was 0.405. For G15U C16G, the “exon inclusion enrichment index” value was 0.0648. For G15U C16U, the “exon inclusion enrichment index” value was 0.0329. With G15U C16A the “exon inclusion enrichment index” value was 0.0156. With A40U G41A the “exon inclusion enrichment index” value was 0.00196. With A40U G41U the “exon inclusion enrichment index” value was 0.0512. For A40U G41C, the “exon inclusion enrichment index” value was 0.701. For G33C G34C, the “exon inclusion enrichment index” value was 0.0456. In the case of G33C G34A, the “exon inclusion enrichment index” value is reported as 0.0659. In the case of G33C G34U, the “exon inclusion enrichment index” value is reported as 0.0871. With G21C C22A the “exon inclusion enrichment index” value was 2.18. In the case of G21C C22G, the “exon inclusion enrichment index” value is reported as 3.35. In the case of G21C C22U, the “exon inclusion enrichment index” value is reported as 2.41. For C16U U17C, the “exon inclusion enrichment index” value was 0.038. In the case of C16U U17G, the “exon inclusion enrichment index” value is reported as 0.211. For C16U U17A, the “exon inclusion enrichment index” value was 0.0567. For A37C, the “exon inclusion enrichment index” value was 0.637. In the case of A37U, the “exon inclusion enrichment index” value is reported as 0.121. In the case of A37G, the “exon inclusion enrichment index” value is reported as 0.438. In the case of A37U G38A, the “exon inclusion enrichment index” value is reported as 0.0367. For A37U G38C, the “exon inclusion enrichment index” value was 0.0886. For A37U G38U, the “exon inclusion enrichment index” value was 0.0123. With A31C U32A the “exon inclusion enrichment index” value was 0.0661. For A31C U32G, the “exon inclusion enrichment index” value was 0.373. For A31C U32C, the “exon inclusion enrichment index” value was 0.643. In the case of C22G, the “exon inclusion enrichment index” value is reported as 2.76. With C22U the “exon inclusion enrichment index” value was 1.27. In the case of C22A, the “exon inclusion enrichment index” value is reported as 2.09. For A40C, the “exon inclusion enrichment index” value was 0.557. With A40G the “exon inclusion enrichment index” value was 0.0976. In the case of A40U, the “exon inclusion enrichment index” value is reported as 0.156. For A29U, the “exon inclusion enrichment index” value was 0.0295. With A29G the “exon inclusion enrichment index” value was 0.272. With A29C the “exon inclusion enrichment index” value was 0.0903. In the case of G21A C22G, the “exon inclusion enrichment index” value is reported as 2.36. For G21A C22U, the “exon inclusion enrichment index” value was 1.19. With G21A C22A the “exon inclusion enrichment index” value was 1.17. In the case of A29C A30U, the “exon inclusion enrichment index” value is reported as 0.0782. With A29C A30C the “exon inclusion enrichment index” value was 0.418. With A29C A30G the “exon inclusion enrichment index” value was 0.677. In the case of A20C G21U, the “exon inclusion enrichment index” value is reported as 1.49. For A20C G21C, the “exon inclusion enrichment index” value was 0.634. With A20C G21A the “exon inclusion enrichment index” value was 1.19. In the case of U17G, the “exon inclusion enrichment index” value is reported as 0.247. In the case of U17C, the “exon inclusion enrichment index” value is reported as 0.0839. With U17A the “exon inclusion enrichment index” value was 0.131. In the case of C24U, the “exon inclusion enrichment index” value is reported as 0.0472. In the case of C24G, the “exon inclusion enrichment index” value is reported as 0.0337. For C24A, the “exon inclusion enrichment index” value was 0.223. For A40G G41C, the “exon inclusion enrichment index” value was 0.927. With A40G G41A the “exon inclusion enrichment index” value was 0.0243. With A40G G41U the “exon inclusion enrichment index” value was 0.153. In the case of G38C, the “exon inclusion enrichment index” value is reported as 0.09. In the case of G38A, the “exon inclusion enrichment index” value is reported as 0.0459. For G38U, the “exon inclusion enrichment index” value was 0.029. For A23U, the “exon inclusion enrichment index” value was 0.475. In the case of A23C, the “exon inclusion enrichment index” value is reported as 0.646. For A23G, the “exon inclusion enrichment index” value was 0.414. In the case of A35C C36U, the “exon inclusion enrichment index” value is reported as 0.00835. With A35C C36G the “exon inclusion enrichment index” value was 0.122. For A35C C36A, the “exon inclusion enrichment index” value was 0.0616. For U32G G33A, the “exon inclusion enrichment index” value was 0.042. For U32G G33U, the “exon inclusion enrichment index” value was 0.0308. For U32G G33C, the “exon inclusion enrichment index” value was 0.143. For G26U, the “exon inclusion enrichment index” value was 0.137. For G26A, the “exon inclusion enrichment index” value was 0.0943. With G26C the “exon inclusion enrichment index” value was 0.156. For U17C C18A, the “exon inclusion enrichment index” value was 1.29. For U17C C18G, the “exon inclusion enrichment index” value was 0.369. For U17C C18U, the “exon inclusion enrichment index” value was 1.34. In the case of C36U A37G, the “exon inclusion enrichment index” value is reported as 0.156. With C36U A37C the “exon inclusion enrichment index” value was 0.0746. For C36U A37U, the “exon inclusion enrichment index” value was 0.0501. For A39U A40U, the “exon inclusion enrichment index” value was 0.0388. With A39U A40G the “exon inclusion enrichment index” value was 0.0141. In the case of A39U A40C, the “exon inclusion enrichment index” value is reported as 0.276. For U27A G28A, the “exon inclusion enrichment index” value was 0.181. For U27A G28U, the “exon inclusion enrichment index” value was 0.0261. For U27A G28C, the “exon inclusion enrichment index” value was 0.192. In the case of C36A, the “exon inclusion enrichment index” value is reported as 0.0939. In the case of C36U, the “exon inclusion enrichment index” value is reported as 0.0249. In the case of C36G, the “exon inclusion enrichment index” value is reported as 0.0745. With G38U A39C the “exon inclusion enrichment index” value was 0.125. In the case of G38U A39U, the “exon inclusion enrichment index” value is reported as 0.000945. With G38U A39G the “exon inclusion enrichment index” value was 0.0472. For G21U C22U, the “exon inclusion enrichment index” value was 0.89. In the case of G21U C22G, the “exon inclusion enrichment index” value is reported as 2.39. For G21U C22A, the “exon inclusion enrichment index” value was 1.05. In the case of G26U U27C, the “exon inclusion enrichment index” value is reported as 0.588. In the case of G26U U27A, the “exon inclusion enrichment index” value is reported as 0.0316. For G26U U27G, the “exon inclusion enrichment index” value was 0.394. With U32C G33U the “exon inclusion enrichment index” value was 0.0526. For U32C G33A, the “exon inclusion enrichment index” value was 0.0354. With U32C G33C the “exon inclusion enrichment index” value was 0.303.
